The target in data set [1] is T1, zif268 DBD R18Q (QE) (UniProt P08046 331-420, R349Q). Kind of data set: EMSA (Scatchard); 30 mM Tris-HCl pH 8.0, 50 mM NaCl, 0.1 mg/ml BSA, 3 mM DTT, 20 uM ZnSO4, 5 ug/ml poly(dI-dC), 1 h on ice; 10% polyacrylamide gel. A general note: In EMSA bound probe runs differently from free probe, usually more slowly.
Data set [2] has as its target T2, zif268 DBD E21N (RN) (UniProt P08046 331-420, E352N). The description is as above.
The target in data set [3] is T3, zif268 DBD wild type (RE) (UniProt P08046 331-420). Described as above.
Data set [4] has as its target T4, zif268 DBD R18D (DE) (UniProt P08046 331-420, R349D). The description is as above.
Data set [5] deals with T1, zif268 DBD R18Q (QE). Kind of data set: competition EMSA (QuMFRA); 30 mM Tris-HCl pH 8.0, 50 mM NaCl, 0.1 mg/ml BSA, 3 mM DTT, 20 uM ZnSO4, 5 ug/ml poly(dI-dC), 1 h on ice; 10% polyacrylamide gel.
Data set [6] concerns the target T5, zif268 DBD R18D/E21N (DN) (UniProt P08046 331-420, R349D;E352N). Described as above.
The target of data set [7] is T2, zif268 DBD E21N (RN). The description is as above.
Data set [8] addresses T3, zif268 DBD wild type (RE). Described as above.
Data set [9] deals with T6, zif268 DBD R18Q/E21N (QN) (UniProt P08046 331-420, R349Q;E352N). The data set is described as above.
Data set [10] concerns the target T4, zif268 DBD R18D (DE). Described as above.
In data set [11] the target is T5, zif268 DBD R18D/E21N (DN). Kind of data set: EMSA (Scatchard x QuMFRA); derived; 30 mM Tris-HCl pH 8.0, 50 mM NaCl, 0.1 mg/ml BSA, 3 mM DTT, 20 uM ZnSO4, 5 ug/ml poly(dI-dC), 1 h on ice; 10% polyacrylamide gel.
Data set [12] deals with T6, zif268 DBD R18Q/E21N (QN). The data set is described as above.
Data set [13] deals with T1, zif268 DBD R18Q (QE). The data set is described as above.
Data set [14] addresses T2, zif268 DBD E21N (RN). Described as above.
The target of data set [15] is T3, zif268 DBD wild type (RE). The data set is described as above.
Data set [16] addresses T4, zif268 DBD R18D (DE). Described as above.
Data set [17] addresses T5, zif268 DBD R18D/E21N (DN). Kind of data set: EMSA (Scatchard); 30 mM Tris-HCl pH 8.0, 50 mM NaCl, 0.1 mg/ml BSA, 3 mM DTT, 20 uM ZnSO4, 5 ug/ml poly(dI-dC), 1 h on ice; 10% polyacrylamide gel.
The target in data set [18] is T6, zif268 DBD R18Q/E21N (QN). The data set is described as above.

Substitutions are numbered along the chain they refer to.

B1: Zif_3 (CC) (dsDNA)
DNA 1: TCGAGGTCGACGGTATCGCGTGGGCCCTCCACTAGTTCTAGAGCGGCCGCCAC
DNA 2: GTGGCGGCCGCTCTAGAACTAGTGGAGGGCCCACGCGATACCGTCGACCTCGA
As for B1, the Ka with zif268 DBD R18Q (QE) [1] was 6.4 10^6 M-1; with zif268 DBD E21N (RN) [2], 33 10^6 M-1; in data set [3], 33 10^6 M-1; in the data set with zif268 DBD R18D (DE) [4] it was 4.7 10^6 M-1; in data set [11] it was 3.1 10^6 M-1; in [12], 3.9 10^6 M-1. The binding signal was 2.17 Ka relative to CG with zif268 DBD R18Q (QE) [5]; 2.61 Ka relative to CG in data set [6]; 0.41 Ka relative to CG with zif268 DBD E21N (RN) [7]; 0.082 Ka relative to CG in [8]; 0.53 Ka relative to CG in data set [9]; 1.91 Ka relative to CG with zif268 DBD R18D (DE) [10].

B2: Zif_1 (CG) (dsDNA)
DNA 1: B1 DNA 1 with C26G
DNA 2: B1 DNA 2 with G28C
Take B2: the Ka in the data set with zif268 DBD R18Q (QE) [13] is 3 10^6 M-1; in [11], 1.2 10^6 M-1; with zif268 DBD E21N (RN) [14], 81 10^6 M-1; in data set [15] it was 406 10^6 M-1; in data set [12] it was 7.4 10^6 M-1; in the data set with zif268 DBD R18D (DE) [16], 2.5 10^6 M-1.

B3: Zif_6 (AC) (dsDNA)
DNA 1: B1 DNA 1 with C25A
DNA 2: B1 DNA 2 with G29T
In the case of B3, the binding signal with zif268 DBD R18Q (QE) [5] was 1.93 Ka relative to CG; in data set [6], 11.8 Ka relative to CG; with zif268 DBD E21N (RN) [7], 0.94 Ka relative to CG; in data set [8], 0.041 Ka relative to CG; in [9] it was 2.78 Ka relative to CG; with zif268 DBD R18D (DE) [10], 3.08 Ka relative to CG. Moreover, the Ka is 5.7 10^6 M-1 with zif268 DBD R18Q (QE) [13]; 14 10^6 M-1 in data set [11]; 77 10^6 M-1 with zif268 DBD E21N (RN) [14]; 16 10^6 M-1 in data set [15]; 21 10^6 M-1 in data set [12]; 5.5 10^6 M-1 with zif268 DBD R18D (DE) [16].

B4: Zif_4 (AG) (dsDNA)
DNA 1: B1 DNA 1 with C25A, C26G
DNA 2: B1 DNA 2 with G28C, G29T
With B4, the Ka in data set [17] is 17 10^6 M-1; in data set [18], 33 10^6 M-1; in the data set with zif268 DBD R18Q (QE) [13], 3.9 10^6 M-1; with zif268 DBD E21N (RN) [14], 105 10^6 M-1; in data set [15], 63 10^6 M-1; with zif268 DBD R18D (DE) [16], 3.6 10^6 M-1. The binding signal with zif268 DBD R18Q (QE) [5] is 1.3 Ka relative to CG; in data set [6], 14.5 Ka relative to CG; with zif268 DBD E21N (RN) [7], 1.29 Ka relative to CG; in [8] it was 0.15 Ka relative to CG; in data set [9], 4.45 Ka relative to CG; with zif268 DBD R18D (DE) [10] it was 1.48 Ka relative to CG.

B5: Zif_2 (CA) (dsDNA)
DNA 1: B1 DNA 1 with C26A
DNA 2: B1 DNA 2 with G28T
B5: the binding signal in the data set with zif268 DBD R18Q (QE) [5] was 1.5 Ka relative to CG; in data set [6] it was 1.21 Ka relative to CG; in the data set with zif268 DBD E21N (RN) [7], 0.36 Ka relative to CG; in data set [8], 0.27 Ka relative to CG; in data set [9] it was 0.49 Ka relative to CG; in the data set with zif268 DBD R18D (DE) [10], 1.16 Ka relative to CG. Further, the Ka with zif268 DBD R18Q (QE) [13] was 4.5 10^6 M-1; in data set [11], 1.4 10^6 M-1; in the data set with zif268 DBD E21N (RN) [14] it was 30 10^6 M-1; in data set [15], 109 10^6 M-1; in data set [12] it was 3.5 10^6 M-1; with zif268 DBD R18D (DE) [16], 2.8 10^6 M-1.

B6: Zif_5 (AA) (dsDNA)
DNA 1: B1 DNA 1 with C25A, C26A
DNA 2: B1 DNA 2 with G28T, G29T
With B6, the binding signal with zif268 DBD R18Q (QE) [5] is 1.36 Ka relative to CG; in data set [6] it was 4.02 Ka relative to CG; in the data set with zif268 DBD E21N (RN) [7], 0.68 Ka relative to CG; in [8], 0.064 Ka relative to CG; in [9], 2.47 Ka relative to CG; with zif268 DBD R18D (DE) [10], 2.25 Ka relative to CG. The Ka with zif268 DBD R18Q (QE) [13] was 4 10^6 M-1; in data set [11] it was 4.8 10^6 M-1; with zif268 DBD E21N (RN) [14] it was 56 10^6 M-1; in [15] it was 26 10^6 M-1; in [12] it was 18 10^6 M-1; with zif268 DBD R18D (DE) [16] it was 3.7 10^6 M-1.

The values above are taken from PMC1184061.
